In general, stoichiometry N refers to the number of molecules, sites or subunits per partner or assembly.

Substitutions are numbered along the chain they refer to.

Data set [1] concerns the molecule itself. Briefly: SEC-MALS; HIRA(644–1017) purified in 500 mM NaCl. (SEC sorts molecules by how far they enter the pores of the column.)
Data set [2] concerns the molecule itself. Description: AUC; sedimentation equilibrium of single purified proteins, 4 °C, 280 nm, 2–3 concentrations, multiple speeds; 20 mM Tris pH 8.0, 300 mM NaCl, 1 mM TCEP; Heteroanalysis and SEDPHAT; the constant of HIRA is of a monomer–trimer equilibrium model.
Data set [3] deals with T1, CABIN1 full length (FL), recombinant (UniProt Q9Y6J0 1-2220).
T1 construct: theoretical molecular weight printed as 246,352 Da; the discussion says 2200 amino-acid residues; Cloned into pFastBac HTA; No removal of the His tag is described; also called CABIN1 FL; FL His-CABIN1
Description: SEC; Superose 6 10/300 GL fractionation; ~100 μM HIRA fragment incubated with ~20 μM CABIN1 FL in 500 μl, 30 min at 4 °C; 20 mM Tris pH 8.0, 300 mM NaCl, 1 mM TCEP. The note with it: both partners purified.

T1 sequence (Q9Y6J0 whole entry): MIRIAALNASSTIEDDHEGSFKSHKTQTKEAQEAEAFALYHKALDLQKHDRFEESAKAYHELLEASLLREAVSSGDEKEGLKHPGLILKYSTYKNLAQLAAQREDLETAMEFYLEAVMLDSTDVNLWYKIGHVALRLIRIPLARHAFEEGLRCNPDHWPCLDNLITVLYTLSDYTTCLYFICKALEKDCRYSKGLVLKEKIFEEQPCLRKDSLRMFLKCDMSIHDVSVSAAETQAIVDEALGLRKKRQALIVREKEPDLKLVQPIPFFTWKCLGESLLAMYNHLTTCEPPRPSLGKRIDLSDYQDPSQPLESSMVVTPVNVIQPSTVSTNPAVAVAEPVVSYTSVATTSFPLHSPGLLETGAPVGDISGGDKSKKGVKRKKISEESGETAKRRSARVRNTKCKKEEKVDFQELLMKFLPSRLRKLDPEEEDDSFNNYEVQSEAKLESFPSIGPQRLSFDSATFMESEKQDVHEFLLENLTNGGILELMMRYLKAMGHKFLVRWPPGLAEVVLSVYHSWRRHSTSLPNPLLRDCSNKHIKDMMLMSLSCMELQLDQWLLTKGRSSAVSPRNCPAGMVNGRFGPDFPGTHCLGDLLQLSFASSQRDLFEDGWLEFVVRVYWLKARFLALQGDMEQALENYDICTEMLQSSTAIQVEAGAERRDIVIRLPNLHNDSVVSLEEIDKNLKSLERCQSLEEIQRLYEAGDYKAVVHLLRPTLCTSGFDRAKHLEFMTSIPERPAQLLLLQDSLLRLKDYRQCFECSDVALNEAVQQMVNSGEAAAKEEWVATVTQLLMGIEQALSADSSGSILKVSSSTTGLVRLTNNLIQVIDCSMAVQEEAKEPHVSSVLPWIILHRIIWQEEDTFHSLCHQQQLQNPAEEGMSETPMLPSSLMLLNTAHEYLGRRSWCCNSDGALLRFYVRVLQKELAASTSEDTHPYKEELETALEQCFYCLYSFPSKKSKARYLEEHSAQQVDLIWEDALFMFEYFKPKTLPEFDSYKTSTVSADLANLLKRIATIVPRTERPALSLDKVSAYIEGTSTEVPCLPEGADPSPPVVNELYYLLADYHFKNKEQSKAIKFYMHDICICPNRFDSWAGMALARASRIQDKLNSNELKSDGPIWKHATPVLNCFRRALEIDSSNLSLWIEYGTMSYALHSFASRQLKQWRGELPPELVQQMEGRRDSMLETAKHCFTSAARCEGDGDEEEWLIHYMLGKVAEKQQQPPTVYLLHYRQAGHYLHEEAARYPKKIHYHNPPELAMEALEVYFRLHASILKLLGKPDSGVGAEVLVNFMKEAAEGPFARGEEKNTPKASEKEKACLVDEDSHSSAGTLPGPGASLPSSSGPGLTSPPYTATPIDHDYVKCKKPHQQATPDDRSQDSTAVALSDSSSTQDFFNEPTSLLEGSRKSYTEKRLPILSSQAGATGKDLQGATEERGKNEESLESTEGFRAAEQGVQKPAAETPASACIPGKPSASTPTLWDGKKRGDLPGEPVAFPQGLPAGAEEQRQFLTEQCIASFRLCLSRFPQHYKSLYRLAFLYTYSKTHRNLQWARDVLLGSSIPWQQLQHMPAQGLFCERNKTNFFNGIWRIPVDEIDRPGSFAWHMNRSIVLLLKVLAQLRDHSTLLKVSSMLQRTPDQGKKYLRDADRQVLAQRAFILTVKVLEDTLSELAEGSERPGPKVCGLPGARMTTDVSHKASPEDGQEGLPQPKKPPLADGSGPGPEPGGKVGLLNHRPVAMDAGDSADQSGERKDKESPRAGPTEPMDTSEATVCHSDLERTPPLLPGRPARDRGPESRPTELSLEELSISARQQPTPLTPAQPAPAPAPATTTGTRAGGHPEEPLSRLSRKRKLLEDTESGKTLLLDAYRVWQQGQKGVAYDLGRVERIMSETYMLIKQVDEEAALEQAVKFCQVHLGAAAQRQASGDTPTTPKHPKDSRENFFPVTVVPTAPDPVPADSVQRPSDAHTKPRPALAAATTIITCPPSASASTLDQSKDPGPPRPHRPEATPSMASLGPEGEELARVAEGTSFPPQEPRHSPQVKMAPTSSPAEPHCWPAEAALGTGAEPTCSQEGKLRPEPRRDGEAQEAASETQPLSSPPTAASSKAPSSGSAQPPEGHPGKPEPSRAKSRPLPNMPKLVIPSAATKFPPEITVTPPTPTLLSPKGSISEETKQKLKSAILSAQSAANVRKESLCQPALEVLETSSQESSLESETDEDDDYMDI

B1: HIRA(644–1017) (domain or fragment, human)
chain: GRPRKDSRLMPVSLSVQSPAALTAEKEAMCLSAPALALKLPIPSPQRAFTLQVSSDPSMYIEVENEVTVVGGVKLSRLKCNREGKEWETVLTSRILTAAGSCDVVCVACEKRMLSVFSTCGRRLLSPILLPSPISTLHCTGSYVMALTAAATLSVWDVHRQVVVVKEESLHSILAGSDMTVSQILLTQHGIPVMNLSDGKAYCFNPSLSTWNLVSDKQDSLAQCADFRSSLPSQDAMLCSGPLAIIQGRTSNSGRQAARLFSVPHVVQQETTLAYLENQVAAALTLQSSHEYRHWLLVYARYLVNEGFEYRLREICKDLLGPVHYSTGSQWESTVVGLRKRELLKELLPVIGQNLRFQRLFTECQEQLDILRDKLEGSS
notes: Cloned by NdeI/XhoI into pTXB1 (pYHD1); the forward primer has ATG before the first HIRA codon, so a start methionine may stand in front; A Se-Met labelled form was used for phasing only; Theoretical trimer weight printed as 125,815 Da; source: E. coli BL21(DE3), purified (chitin beads, on-column intein cleavage, Superdex 200); not shown: Intein (chitin beads), C-terminal, cleaved
Take B1: the “stoichiometry N” value in data set [1] was found to be 3.

B2: recombinant HIRA(661–1017) Δ873–904 (domain or fragment, human, UniProt P54198 661-1017, looked up)
chain: SPAALTAEKEAMCLSAPALALKLPIPSPQRAFTLQVSSDPSMYIEVENEVTVVGGVKLSRLKCNREGKEWETVLTSRILTAAGSCDVVCVACEKRMLSVFSTCGRRLLSPILLPSPISTLHCTGSYVMALTAAATLSVWDVHRQVVVVKEESLHSILAGSDMTVSQILLTQHGIPVMNLSDGKAYCFNPSLSTWNLVSDKQDSLAQCADFRSSVPHVVQQETTLAYLENQVAAALTLQSSHEYRHWLLVYARYLVNEGFEYRLREICKDLLGPVHYSTGSQWESTVVGLRKRELLKELLPVIGQNLRFQRLFTECQEQLDILRDK
notes: also called loop deletion mutant; not shown: GST, N-terminal, cleaved
For the molecule B2, the “stoichiometry N” value in data set [2] is 3. Further, in data set [3], the binding result was “binds”.

B3: recombinant human HIRA(661–1017) (domain or fragment, UniProt P54198 661-1017, looked up)
chain: SPAALTAEKEAMCLSAPALALKLPIPSPQRAFTLQVSSDPSMYIEVENEVTVVGGVKLSRLKCNREGKEWETVLTSRILTAAGSCDVVCVACEKRMLSVFSTCGRRLLSPILLPSPISTLHCTGSYVMALTAAATLSVWDVHRQVVVVKEESLHSILAGSDMTVSQILLTQHGIPVMNLSDGKAYCFNPSLSTWNLVSDKQDSLAQCADFRSSLPSQDAMLCSGPLAIIQGRTSNSGRQAARLFSVPHVVQQETTLAYLENQVAAALTLQSSHEYRHWLLVYARYLVNEGFEYRLREICKDLLGPVHYSTGSQWESTVVGLRKRELLKELLPVIGQNLRFQRLFTECQEQLDILRDK
notes: Theoretical molecular weight of the homotrimer printed as 118,710 Da; also called HIRA trimer; not shown: GST, N-terminal, cleaved
Turning to B3, in data set [2], the “stoichiometry N” value amounted to 3. In data set [3], the binding result is “binds”.

B4: recombinant HIRA(661–1017 + FRL870-871-874AAA) (domain or fragment, human, UniProt P54198 661-1017, looked up)
chain: B3 chain with F210A, R211A, L214A
notes: not shown: GST, N-terminal, cleaved
Turning to B4, the binding result in data set [3] is “binds”.
